Data reported in patent US20150342943A1, “METHODS OF TREATING LIVER DISEASE” (Gilead Sciences, Inc., priority 2014, published 2015).

B1: AB0023: murine anti-LOXL2 antibody, heavy chain variable region SEQ ID NO: 15, light chain variable region SEQ ID NO: 16 (antibody, V domains shown)
VH: MEWSRVFIFLLSVTAGVHSQVQLQQSGAELVRPGTSVKVSCKASGYAFTYYLIEWVKQRPGQGLEWIGVINPGSGGTNYNEKFKGKATLTADKSSSTAYMQLSSLTSDDSAVYFCARNWMNFDYWGQGTTLTVSS
VL: MRCLAEFLGLLVLWIPGAIGDIVMTQAAPSVSVTPGESVSISCRSSKSLLHSNGNTYLYWFLQRPGQSPQFLIYRMSNLASGVPDRFSGSGSGTAFTLRISRVEAEDVGVYYCMQHLEYPYTFGGGTKLEIK
modifications: anti-LOXL2 antibody AB0023 heavy chain variable region; anti-LOXL2 antibody AB0023 light chain variable region

Experiments:
HSCs = assay: Quantitative RT-PCR of TGF-β1-induced gene transcription in HSCs; type: cell-based, human; details: pre-treated HSCs, TGF-β1 5 ng/ml for 48 hrs
Description: For gene expression assays, RNA was isolated using commercially available kit (Qiagen Midikit), converted to cDNA (Retroscript Kit, Ambion) and tested for expression of genes involved in fibrosis with human probes on ABI 7300 (Applied Biosystems). All assays were performed in triplicate.
Quantitative RT-PCR was used to determine the effects of compounds to inhibit TGF-β1-induced gene transcription of αSMA, COL1α1, […], and lumican.

primary human HSCs [1] = assay: Collagen Assay (Sircol) in TGF-β-stimulated hepatic stellate cells; details: read-out: Collagen Assay EC50
Description: Collagen synthesis, α-SMA (smooth muscle actin) expression, and changes in transcript expression were measured in response to stimulation from ROS (reactive oxygen species) and TGF-β.
Commercially available primary human HSCs (Sciencell) were plated at a density of 250,000 cells/well on 12-well plates (Corning). HSCs were co-stimulated with 5 ng/mL TGF-β+/− ASK1 inhibitor compounds. Collagen production was assessed by Sircol Assay where extracellular collagen was digested with pepsin, followed by acid extraction, neutralization, and colometric quantification using the Sircol assay kit according to the manufacturer's protocols (BioColor).

primary human HSCs [2] = assay: α-SMA Assay in TGF-β-stimulated hepatic stellate cells; type: cell-based; details: 24 h, read-out: α-SMA Assay EC50
Description: For quantification of α-SMA protein expression, HSC's were plated at a density of 10,000 cells/well in collagen coated 96-well plates (BD-Biosystems). […] HSCs were fixed in 4% PFA, permeabilized in 0.02% Triton-X-100, blocked for 30 min. and stained with an anti-α-SMA specific antibody (Sigma) and a flourescently labeled secondary antibody (Invitrogen). α-SMA expression was quantified on a fluorescent plate reader.

male C57BL/6 mice = assay: Interventional NASH model (treatment from day 240 of high fat, high cholesterol, high sugar diet); type: in vivo
Description: Liver homogenate (1.5 mL) was transferred to 1.5 mL Eppindorf tubes and centrifuged at 14,000 rpm for 10 min. Supernate was transferred to 96-deep well plate and diluted 1:1 with 4 M HCl. HYP levels were quantified using a commercially available hydroxyproline assay (Quickzyme Biosciences).
Commercially available high fat, high cholesterol, high sugar diet was administered continuously to 12 week old male C57BL/6 mice for 320 days. […] Animal cohorts (n=15) were sacrificed after 80 days of treatment. Collagen synthesis and hydroxyproline (HYP) were measured using D2O labeling. Second harmonic imaging was used to quantitate collagen morphometry.
Commercially available high fat, high cholesterol, high sugar diet was administered continuously to 12 week old male C57BL/6 mice for 320 days. […] At 80 days of treatment, collagen synthesis and HYP levels in each group (n=15) were determined using D2O labeling. […] Liver homogenate (1.5 mL) was centrifuged at 14,000×rpm for 10 min and the resulting supernate was d diluted 1:1 with 4 M HCl. HYP levels were quantified using a commercially available hydroxyproline assay (Quickzyme Biosciences).
In addition, immunohistochemistry and immunoblot analysis were used to characterize the levels of phospho-p38 (p-p38), phospho-JNK1 (p-JNK1), and phospho-MKK4 (p-MKK4) proteins.

[3] = system: TAA-induced liver fibrosis; assay: TAA-induced liver fibrosis; details: in vivo
Mdr2^−/− BALB/c = assay: Interventional PSC model; type: in vivo, mice
Description: Control groups received treatment with either vehicle or an unrelated isotype-matched control IgG (i.e. a murine IgG1). Portal venous pressure
(PVP) was measured invasively by direct cannulation of the portal vein with a micro-tip pressure monitor at the end of the study. Liver fibrosis was evaluated by histology, biochemical determination of collagen and analysis of profibrogenic gene expression by qRT-PCR.

Row | Molecule | TGF-β1-induced responses in RNA levels of αSMA, COL1α1, TIMP1, and lumican (HSCs) | EC50 (primary human HSCs [1]) [nM] | EC50 (primary human HSCs [2]) [nM] | synthesis rates of extracellular matrix proteins (Col1a1, Col1a3, and Col1a5) (male C57BL/6 mice; Example 3) | blood glucose and insulin levels (male C57BL/6 mice; additional studies) | relative hydroxyproline levels (male C57BL/6 mice; additional studies, FIG. 30) | TAA-induced fibrosis progression [3] | reduction of hepatic collagen deposition (hydroxyproline levels) (Mdr2^−/− BALB/c; 6 weeks treatment, vs control group) [%] | portal venous pressure (PVP) (Mdr2^−/− BALB/c; end of study, control 10.1±0.2) [mmHg] | fibrosis progression in Mdr2^−/− mice (Mdr2^−/− BALB/c; mouse, in vivo)
1 | Cc1cc(F)c(C(=O)Nc2cccc(-c3nncn3C(C)C)n2)cc1-n1cnc(C2CC2)c1 [Compound 3] | blocked or inhibited | 11.6 | 18.9 |  |  |  |  |  |  | 
2 | B1 |  |  |  | affected | did not affect | did not result in a decrease | blocked | 38 | 8.36±0.23 | blocked
